# Target: epidermal growth factor receptor (EGFR) on A431 human epidermoid cells (human) (UniProt P00533)
# Experiment: cell-based or functional assay
substance,measurement,value
streptavidin-TGF-α fusion protein (ST-TGF) (from UniProt P22629 40-157; P01135 40-89),"mean fluorescence activity (biotin-β-galactosidase delivered into each A431 cell, FACS)",214
same,"positive cells (delivery of biotin-β-galactosidase into A431 cells, staining and FACS)",> 99%
